Data taken from the supplement of paper PMC10567573.

B1: GALNT9 (parent)
chain: FTQSGPIVSRATGRCLEVEMSKDA
B2: RIT1 (parent)
chain: FHALVREIRRKEKEAVLAMEKKSK

Variants of: B1
Test: protein stability index of a GFP-peptide fusion (GPS, HEK-293T) (PSI 1-6); higher = more stable
Details: c terminus: a fixed tail appended
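Note: lentivirally expressed fusions sorted by FACS into six bins by GFP to DsRed ratio, PSI derived from sequencing read proportions per bin multiplied by bin number.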

Protein stability index of substitutions, site by site:
S4: C 1.48; L 2.78; T 2.82; P 2; E 2.3; G 2.01; Q 2.35; Y 2.24; N 1.85; I 3.66; K 1.88; H 1.91; A 2.37
T2: A 1.92; I 2.01; K 1.72; F 3.05; R 1.75; Y 2.53; Q 2.35; E 3.58; W 1.43; N 2.17; S 2.71; D 2.97; L 2.25; C 2.96
F1: Q 2.98; P 1.87; M 1.74; K 3.17; I 2; Y 2.03; N 3.15; C 3.31; H 2.93; W 2.3; G 3.15; E 4.08; L 2; D 3.51
I7: L 1.18; N 2.73; R 2.08; P 2.78; A 2.25; M 1.78; S 2.52; D 3.31; C 1.89; T 2.36; G 1.79; Q 1.98; E 2.63; H 2.66
V8: R 1.83; T 1.42; N 2.03; G 1.96; Q 2.25; M 2.38; P 2.07; S 3.41; D 3.27; W 3.04; I 2.54; C 2.04; H 2.58
P6: M 3.4; T 1.42; N 1.07; E 1.85; D 2.08; C 1.72
S9: N 2.06; T 1.92; H 1.67; E 2.2; P 2.05; G 2.76; A 4.78; M 2.28; F 2.88; D 2.99; C 2.17; L 2.43
R10: E 3.91; F 1.41; C 2.33; A 2.41; I 1.53; K 2.65; H 2.37; D 3.87; L 2.77; G 2.89
G5: Q 2.37; A 1.81; C 2.57; N 2.34; Y 3.35; D 2.74; T 2.46; H 2.42; L 1.53; V 2.39; S 2.54; I 1.64; R 1.66; F 2.62
Q3: I 1.58; M 3.03; P 1.34; W 1.51; S 2.48; Y 1.73; N 1.24; G 1.73; F 2.34; D 1.83; L 1.84; E 2.51; T 1.94; R 1.48; H 2.04; K 2.54; A 2.01

Variants of: B2
Test: as above
Details: c terminus: a fixed tail appended

Protein stability index, by site and new letter:
I8: H 2.14; G 2.23; T 1.87; C 2.25; D 3.15; A 2.93; Q 2.47; P 2.28; E 2.87
A18: S 2.26; E 1.22; F 2.15; K 2.5; W 1.68; R 2.11; Y 1.18; C 1.89; I 1.69; Q 1.95; T 1.91
L17: K 1.97; D 1.51; R 1.9; T 2.21; M 1.86; P 1.77; A 1.85; I 2.1; F 2.12
K21: I 1.41; F 2.74; E 1.39; S 1.56; C 1.99; T 2.11; N 1.77
R6: T 3.19; K 1.43; M 1.81; A 1.34; G 1.76; H 1.42; F 2.74; C 2.07; Y 1.73; W 1.81
R10: W 1.75; I 2.61; E 1.7; D 1.94; L 1.55; P 2.31; G 2.06; F 4.17; S 1.59; V 2.29
K22: L 1.97; F 1.84; C 1.65; S 1.42; H 1.57; R 2.41; Q 1.67; M 2.34; N 2.29; P 1.93; A 2.4; E 1.87
E7: L 4.8; Q 1.32; N 2.44; F 1.82; R 1.87; M 2.82; I 2.24; C 2.16; T 1.5
F1: E 5.2; R 4.48; G 4.36; Q 4.72; C 3.53; V 3.04; D 4.03; K 4.06; H 4.2; W 2.43
K11: E 2.07; N 1.45; C 2.28; S 1.58; V 1.99; I 1.55
E20: Q 1.65; F 2.18; D 2.17; P 2.42; N 1.88; A 2.07; L 1.61; Y 2.35; T 1.92; G 1.41; W 2.98
K24: W 1.24; A 1.91; Q 1.23; M 1.78; R 2.59; E 1.95; H 1.86; S 1.38
A3: L 1.97; M 1.96; H 1.41; K 2.04; I 2.12; G 2.15
E12: D 2.13; C 1.81; L 1.81; S 3; Q 1.89; R 2.06; A 3.79; M 3.96; K 2.03
L4: T 2.23; G 2.52; I 2.35; H 2.36; R 2.44; E 3.18; S 2.77; P 3.1
M19: R 2.3; Y 1.76; G 2.23; E 1.88; W 1.53; S 1.79; I 1.24; K 2.17; Q 1.44
V16: A 2.26; T 1.57; R 2.69; G 1.7; Y 1.95; P 2.62; K 1.81; L 2.05; I 1.36
K13: S 2.42; A 2.04; H 2.38; D 1.56; F 2.27; E 1.08; N 2.02; M 1.5; R 1.67; G 1.37
V5: I 2.56; N 1.8; E 2.65; F 1.97; M 2.54; P 1.73; Y 1.82
S23: V 1.33; P 1.37; I 1.76; E 1.7; A 1.64; K 2.31
R9: Q 2.5; P 2.8; M 2.03; I 2; W 2.02
E14: D 1.41; M 2.1; C 1.58; R 1.84; Q 1.55; I 1.85; P 1.73; H 1.96; K 2.89; V 1.9
H2: W 3.04; T 2.55; I 2.04; D 3.76; K 2.73; A 2.64; E 3.37; M 2
A15: I 2.05; Y 2.12; M 2.17; P 2.9; N 1.81; Q 2.19; V 2.4; L 1.63
